Experimental data reported in CN110903389A (FUZHOU MAIXIN BIOTECHNOLOGY DEV CO LTD, dated 2020).

Target: T1, 重组GFAP蛋白 (人GFAP第292位至第432位氨基酸片段 + 组氨酸标签, 大肠杆菌表达) (human, UniProt P14136 292-432)
T1 construct: also called 重组GFAP蛋白片段; 免疫原; not shown: Histidine tag from vector pET28a
Assay: Indirect ELISA on coated recombinant GFAP protein. The affinity constant was calculated from the antibody concentration at half of the plateau OD450.

T1 sequence (P14136 292-432): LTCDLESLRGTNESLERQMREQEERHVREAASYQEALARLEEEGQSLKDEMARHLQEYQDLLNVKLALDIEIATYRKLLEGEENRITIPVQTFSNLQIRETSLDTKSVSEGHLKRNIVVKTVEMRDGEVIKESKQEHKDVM

Ka: 6.53e+09 M⁻¹
B1: 抗GFAP蛋白单克隆抗体(10G1G11H7) (antibody, V domains shown)
VH: EVQLQQSGAELVKPGASVKLSCTASGFNIKDTYMHWVKQRPEQGLEWIGRIDPANGKTKYDPKFQGKATITADTSSNTAYLQLSSLTSEDTAVYYCARRGIMTTVPFAYWGQGTLVTVSA
VL: DIVMTQAAPSVPVTPGESVSISCRSSKSLLHSNGNTYLYWFLQRPGQSPQLLIYRMSNLTSGVPDRFSGSGSGTAFTLRISRVEAEDVGVYYCMQHLEYPFTFGGGTKLEIK
